Results on eight molecules are retold here after PMC7954794, “Protein context shapes the specificity of SH3 domain-mediated interactions in vivo” (Nature Communications, 2021).

The subject of the assay is 575 putative partners (preys) of 22 WT SH3-containing proteins. The experiment in a line: DHFR-PCA on solid medium, WT and SH3-deleted baits (Fig. 1B). The format is cell-based, Saccharomyces cerevisiae. The arrangement: key to Score: 0: SH3-independent; 1: SH3-dependent PPIs; 2: SH3-inhibited PPIs. The settings on record: for SH3-dependent PPIs: number of PPIs, SH3 domain in its own protein, DHFR-PCA, Fig2D,S2F; for medrep (log2 median colony size normalized to plate background, PCA score): label = prey. In outline: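 In S. cerevisiae, 22 SH3-containing baits fused genomically to DHFR F[1,2], either WT or with each SH3 replaced via CRISPR by a poly-Gly/Ser linker, screened against 575 DHFR F[3] preys plus 40 negative controls in 1536 arrays, preys duplicated at randomized positions.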

B1: FUS1 (protein, UniProt P11710 1-512, looked up)
Nuclear fusion protein FUS1: MVATIMQTTTTVLTTVAAMSTTLASNYISSQASSSTSVTTVTTIATSIRSTPSNLLFSNVAAQPKSSSASTIGLSIGLPIGIFCFGLLILLCYFYLKRNSVSISNPPMSATIPREEEYCRRTNWFSRLFWQSKCEDQNSYSNRDIEKYNDTQWTSGDNMSSKIQYKISKPIIPQHILTPKKTVKNPYAWSGKNISLDPKVNEMEEEKVVDAFLYTKPPNIVHIESSMPSYNDLPSQKTVSSKKTALKTSEKWSYESPLSRWFLRGSTYFKDYGLSKTSLKTPTGAPQLKQMKMLSRISKGYFNESDIMPDERSPILEYNNTPLDANDSVNNLGNTTPDSQITSYRNNNIDLITARPHSVIYGTTAQQTLETNFNDHHDCNKSTEKHELIIPTPSKPLKKRKKRRQSKMYQHLQHLSRSKPLPLTPNSKYNGEASVQLGKTYTVIQDYEPRLTDEIRISLGEKVKILATHTDGWCLVEKCNTQKGSIHVSVDDKRYLNEDRGIVPGDCLQEYD
On to B1, for which the “SH3-dependent PPIs” value worked out at 0.

B2: HOF1 (protein, UniProt Q05080 1-669, looked up)
Cytokinesis protein 2: MSYSYEACFWDPNDNGVNILLGHISQGIRSCDSMILFFKQRSELEKDYARRLGAITGKLDKDIGTNMDYGKLNETFNVVLSVEKARAQSHSKQSEILFRQIYTDTKAFAANLQARYTTLSGKIERLRMDKFNKKKGCEVLQKKLQDAQIRFRDLQLNENNMIGAKRVEHNKRELLKWESNSQEYKVQLDVLKQEYKASQKFWIHEWAQLSCELQEMENARISFLQSKLQQFATSSMETYILEQTKMDMLTNHLNSFTAADEISTFSKENGTGRLKHKTSKGDMNSSANWAQMSSISTTSKKTESYMDNIRKLSSQLKETENKRKLASIDKYEKPLPSPEVTMATQFRNSTPVIRNETKVVANPTLSLRSSPVQLQSNVDDSVLRQKPDKPRPIVGEEQLKPDEDSKNPDEKGLMVHKRNQSLSSPSESSSSNPTDFSHIKKRQSMESMTTSVSSMANSIDDSQRFAKSWNSSNRKRKSMSHLQVPSSASSRSDDGGRTPNSAHNLNEDDYNTRRDTSTSTILFKPPVAVRGTSRGHTHRQSMIMQDSSNPIEDALYEMERIQSSSKPGTKTGNIMDERGVVRDRGITVTLPIVTSEGFPVIEYAKAMYPLIGNEAPGLANFHKGDYLLITEIVNKDWYKGEVYDNDRIDRNHRIGLIPYNFIQLLHQGL
With B2, the “SH3-dependent PPIs” value is given as 4.

B3: LSB1 (protein, UniProt P53281 2-241, looked up)
LAS seventeen-binding protein …: SASLVNRSLKNIRNELEFLKESNVISGDIFELINSKLPEKWDGNQRSPQNADTEEYVEALYDFEAQQDGDLSLKTGDKIQVLEKISPDWYRGKSNNKIGIFPANYVKPAFTRSASPKSAEAASSSTVSRPSVPPPSYEPAASQYPSQQVSAPYAPPAGYMQAPPPQQQQAPLPYPPPFTNYYQQPQQQYAPPSQQAPVEAQPQQSSGASSAFKSFGSKLGNAAIFGAGSAIGSDIVNSIF
Take B3: the “SH3-dependent PPIs” value is given as 8.

B4: CYK3 (protein, UniProt Q07533 1-885, looked up)
Cytokinesis protein 3: MATNLTSLKPPFKVKARYGWSGQTKGDLGFLEGDIMEVTRIAGSWFYGKLLRNKKCSGYFPHNFVILLEERLNSSTENGRQPSKIVESFEKSNKVVIPPVPSRYSDERPRPKKKLSSSMPNSPKKPVDSLTKARKAKSKEMVNEKNIYNTQSSRHHNNSAPNLPLASHSKPQVRNFEESMNNPLPPLPPLPDLDNMRKTDKRAPKKSYSANDLHMARSSREYNYYKDNQKFYDGFIPEKRYSLEEDSISSGLFSNSQYLNDSACSSENSFALMSDFSATSAGSFARHKYAQSFSDSLQRSQNANGCSTKINDSQEFGDSNASSRNGKMGDILRKIIIPKRNTNIYSSSVSSPKSPKAYPKLPDIQNLNLSATPDEARDWIAVKCHLNRARTLTKYDKHPRYMRALEENRDLILHPQDSIYNGLNTNEVKGNTKPGLVDVELAELNIEYIDKMTWKRCIRDGTMTLDSWAQTTFSARYSTVLEKLRGIYIFCTEMFALTDDNGTSDFSAEPQNLEKILYRKHCTPYELTWLFKKLANSLGITCEIVIGFLKTPSAINWEFKYNHCWLRILVNKEWRFIDVILGNVTNPIHEFVNNRKIKKAENSYFLMAPLEMIYTHIPPREFEQHIVPSIDQLSALYLPLVFPSFFKNELKLYKFSTALSFLEDSEIYECSLEIPNDVEVFASVVIPTDNEEASSAYRNMELALTQIKKQKAESGRRIALIKAVLPPNVNKGSLYIHSGVRGTQTSIANIHPLSMMVPLTHKGSNMKYEFVIKIPSESIQKIELYIVEPQSRYLFVGNEYSFEVIQSPSDGIVYSSDEGPNQNRKQPMAIKSPSGRVHELVKSDPHFPYGTWKGSIKIKEPGVWSALVIADSGIGWSVFAEWLCV
Regarding B4, the “SH3-dependent PPIs” value amounted to 0.

B5: LSB3 (protein)
chain: MGINNPIPRSLKSETKKAAKILASFVKPNQVFGADQVIPPDVLKRAKGLAIITILKAGFLFSGRAGSGVIVARLKDGTWSAPSAIAMAGAGAGGMVGIELTDFVFILNTQDAVKSFSEFGTITLGGNVSVSAGPLGRSAEAAASASAGGVAAVFAYSKSKGLFAGVSVEGSAIIERREANRKFYGDNCTAKMILSGRIRPPPAVDPLFRVLESRAFNYRPSNGGRGSFDDDEDDYYDDDDYYNDIPSSFSSTDASSTRPNTRSTRRRAQSGSRYTFDDDDDDDDYGTGYSRNSRLAPTNSGGSGGKLDDPSGASSYYASHRRSGTAQSRARSSRNRWADDEYDDYDDDYESGYRRGNGRDRTKDREVDDLSNRFSKSRISSASTPQTSQGRFTAPTSPSTSSPKAVALYSFAGEESGDLPFRKGDVITILKKSDSQNDWWTGRVNGREGIFPANYVELV
modifications: left off: DHFR F[3], C-terminal, kept
On to B5, for which the “SH3-dependent PPIs” value was found to be 19.

B6: HSE1 (protein, UniProt P38753 2-452, looked up)
Class E vacuolar …: SSSAIKIRNALLKATDPKLRSDNWQYILDVCDLVKEDPEDNGQEVMSLIEKRLEQQDANVILRTLSLTVSLAENCGSRLRQEISSKNFTSLLYALIESHSVHITLKKAVTDVVKQLSDSFKDDPSLRAMGDLYDKIKRKAPYLVQPNVPEKHNMSTQADNSDDEELQKALKMSLFEYEKQKKLQEQEKESAEVLPQQQQQHQQQNQAPAHKIPAQTVVRRVRALYDLTTNEPDELSFRKGDVITVLEQVYRDWWKGALRGNMGIFPLNYVTPIVEPSKEEIEKEKNKEAIVFSQKTTIDQLHNSLNAASKTGNSNEVLQDPHIGDMYGSVTPLRPQVTRMLGKYAKEKEDMLSLRQVLANAERSYNQLMDRAANAHISPPVPGPALYAGMTHANNTPVMPPQRQSYQSNEYSPYPSNLPIQHPTNSANNTPQYGYDLGYSVVSQPPPGYEQ
In the case of B6, the “SH3-dependent PPIs” value is listed as 1.

B7: YBL039C (protein, UniProt P28274 1-579, looked up)
CTP synthase 1: MKYVVVSGGVISGIGKGVLASSTGMLMKTLGLKVTSIKIDPYMNIDAGTMSPLEHGECFVLDDGGETDLDLGNYERYLGVTLTKDHNITTGKIYSHVIAKERKGDYLGKTVQIVPHLTNAIQDWIERVAKIPVDDTGMEPDVCIIELGGTVGDIESAPFVEALRQFQFKVGKENFALIHVSLVPVIHGEQKTKPTQAAIKGLRSLGLVPDMIACRCSETLDKPTIDKIAMFCHVGPEQVVNVHDVNSTYHVPLLLLEQKMIDYLHARLKLDEISLTEEEKQRGLELLSKWKATTGNFDESMETVKIALVGKYTNLKDSYLSVIKALEHSSMKCRRKLDIKWVEATDLEPEAQESNKTKFHEAWNMVSTADGILIPGGFGVRGTEGMVLAARWARENHIPFLGVCLGLQIATIEFTRSVLGRKDSHSAEFYPDIDEKNHVVVFMPEIDKETMGGSMRLGLRPTFFQNETEWSQIKKLYGDVSEVHERHRHRYEINPKMVDELENNGLIFVGKDDTGKRCEILELKNHPYYIATQYHPEYTSKVLDPSKPFLGLVAASAGILQDVIEGKYDLEAGENKFNF
As for B7, the “medrep (log2 median colony size normalized to plate background, PCA score)” value is listed as 2.2515 (bait SLA1-2, DHFR-PCA, Replicates 4 (2 for YCR009C, YDR388W)) and 2.2515 (bait SLA1-3, DHFR-PCA, Replicates 4 (2 for YCR009C, YDR388W, YIL033C)). Besides, the Score is 1 (bait SLA1-2, label = prey) and 0 (bait SLA1-3, label = prey). For the same molecule, the “Ratio (SH3-deleted/WT medrep)” value (bait SLA1-2, label = prey, only significant differences shown, PPIs completely lost have a ratio of 0.1, gained PPIs 2.5) is on record as 0.1.

B8: BBC1: yeast SH3-containing protein; SH3-deleted or knockout strain (protein, UniProt P47068 1-1157, looked up)
Myosin tail …: MSEPEVPFKVVAQFPYKSDYEDDLNFEKDQEIIVTSVEDAEWYFGEYQDSNGDVIEGIFPKSFVAVQGSEVGKEAESSPNTGSTEQRTIQPEVEQKDLPEPISPETKKETLSGPVPVPAATVPVPAATVPVPAATAVSAQVQHDSSSGNGERKVPMDSPKLKARLSMFNQDITEQVPLPKSTHLDLENIPVKKTIVADAPKYYVPPGIPTNDTSNLERKKSLKENEKKIVPEPINRAQVESGRIETENDQLKKDLPQMSLKERIALLQEQQRLQAAREEELLRKKAKLEQEHERSAVNKNEPYTETEEAEENEKTEPKPEFTPETEHNEEPQMELLAHKEITKTSREADEGTNDIEKEQFLDEYTKENQKVEESQADEARGENVAEESEIGYGHEDREGDNDEEKEEEDSEENRRAALRERMAKLSGASRFGAPVGFNPFGMASGVGNKPSEEPKKKQHKEKEEEEPEQLQELPRAIPVMPFVDPSSNPFFRKSNLSEKNQPTETKTLDPHATTEHEQKQEHGTHAYHNLAAVDNAHPEYSDHDSDEDTDDHEFEDANDGLRKHSMVEQAFQIGNNESENVNSGEKIYPQEPPISHRTAEVSHDIENSSQNTTGNVLPVSSPQTRVARNGSINSLTKSISGENRRKSINEYHDTVSTNSSALTETAQDISMAAPAAPVLSKVSHPEDKVPPHPVPSAPSAPPVPSAPSVPSAPPVPPAPPALSAPSVPPVPPVPPVSSAPPALSAPSIPPVPPTPPAPPAPPAPLALPKHNEVEEHVKSSAPLPPVSEEYHPMPNTAPPLPRAPPVPPATFEFDSEPTATHSHTAPSPPPHQNVTASTPSMMSTQQRVPTSVLSGAEKESRTLPPHVPSLTNRPVDSFHESDTTPKVASIRRSTTHDVGEISNNVKIEFNAQERWWINKSAPPAISNLKLNFLMEIDDHFISKRLHQKWVVRDFYFLFENYSQLRFSLTFNSTSPEKTVTTLQERFPSPVETQSARILDEYAQRFNAKVVEKSHSLINSHIGAKNFVSQIVSEFKDEVIQPIGARTFGATILSYKPEEGIEQLMKSLQKIKPGDILVIRKAKFEAHKKIGKNEIINVGMDSAAPYSSVVTDYDFTKNKFRVIENHEGKIIQNSYKLSHMKSGKLKVFRIVARGYVGW
For B8, the “SH3-dependent PPIs” value was 19.
